Reference: article PMC6589724, “A geminivirus betasatellite encoded βC1 protein interacts with PsbP and subverts PsbP‐mediated antiviral defence in plants”

Target: T1, GST-βC1 (Radish leaf curl betasatellite (RaLCB), UniProt A9XCM1 1-118)
T1 sequence: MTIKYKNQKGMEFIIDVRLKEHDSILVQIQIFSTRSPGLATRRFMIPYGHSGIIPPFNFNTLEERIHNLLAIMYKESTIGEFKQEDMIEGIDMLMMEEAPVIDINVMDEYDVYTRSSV
Assay: EMSA; 20 mM Tris-HCl pH 8.0, 2 mM DTT, 5 mM MgCl2, 12% glycerol, 25 mM KCl, 2 mM ATP, 10 nM probe, 15 min, room temperature; 3.7% native PAGE
Conditions: protein: recombinant; tags: N-terminal GST (pGEX-6p-2); label: 5'-32P; single strand

ACGCTACGCAGCAGCCTTAGCTAC (ssDNA) [SCR probe (1303-1326)]
binding result: binds
